# In paper PMC2172684:
# Target: importin α (UniProt P52292)
# Assay: ELISA
row,Substance,Kd [nM]
1,importin β L612D/F688A (m-C) (from UniProt Q14974 1-876) (natural protein),2.2
2,importin β (304–876) (from UniProt Q14974 304-876) (domain or fragment),2.5
3,importin β m-N/m-C (from UniProt Q14974 1-876) (natural protein),2.1
4,wild-type importin β (from UniProt Q14974 1-876) (natural protein),0.9
5,importin β m-C (304–876) (from UniProt Q14974 304-876) (domain or fragment),4.3
6,importin β I178A/F217A/Y255A/I263R (m-N) (from UniProt Q14974 1-876) (natural protein),1.1

# Target: GST–RanGTP (UniProt P62826)
# Assay: ELISA
row,Substance,Kd [nM]
1,wild-type importin β (from UniProt Q14974 1-876) (natural protein; other documents disagree on this pair),3.3

# Target: importin α (UniProt P52292)
# Assay: ELISA
# Remark: another data set of the same source
row,Substance,Kd [nM]
1,importin β E214A (from UniProt Q14974 1-876) (natural protein),1.3
2,wild-type importin β (from UniProt Q14974 1-876) (natural protein),0.9
3,importin β I178D/Y255A (from UniProt Q14974 1-876) (natural protein),1.1
4,importin β I178A/F217A/Y255A/I263R (m-N) (from UniProt Q14974 1-876) (natural protein),1.2
5,importin β I178D (from UniProt Q14974 1-876) (natural protein),1.2
6,importin β I263R (from UniProt Q14974 1-876) (natural protein),0.9
7,importin β I178A (from UniProt Q14974 1-876) (natural protein),1.1
